According to PMC5719408, “Multivalent cross-linking of actin filaments and microtubules through the microtubule-associated protein Tau” (Nature Communications, 2017):

Target: NBD-conjugated actin from α-skeletal muscle (F-actin) (UniProt P68135)
Assay: NBD-F-actin fluorescence titration
Details: reference: unphosphorylated Tau(254–284) peptide; sites S262

binding against the reference: weaker
Substance: Tau (2N4R) 254-284 (from UniProt P10636-8) pS262 Tau(254–284) peptide
